Test results published in paper PMC10562830 (Science translational medicine, 2023).

B1: 506.C01 Fab (Fab, V domains shown)
VH: QVQLQESGPGLVKPSQTLSLTCTVSGGSISSDDYYWTWIRLPPGKGLEWIGYIFYTGGTYYNPSLKSRVTISLDRSKNQFSLKLSSVTAADTAVYFCARAPETYCSTTNCYKGYFDSWGQGTLVTVSS
VL: DIQMTQSPSSVSASVGDRVTITCRASQGISSWLGWYQQKPGKAPKLLIYAASSLQSGVPSRFSGSGSGTDFTLTISSLQPEDFATYYCQQANSFPRTFGQGTKVEIK
B2: 506.C01 (antibody, V domains shown)
VH: B1 VH
VL: B1 VL
B3: 506.A08 Fab (Fab, V domains shown)
VH: EEQLVESGGGLVQPGGSLRLSCAASGFTFSSYSMNWVRQAPGKGLEWVSYISSSSSTIHYADSVKGRFTISRDNAKNSLYLQMNSLRAEDTAVYYCAREGNSGYEPLDYWGQGTLVTVS
VL: not shown
B4: 506.A08 (antibody, V domains shown)
VH: B3 VH
VL: not shown

Tests used:
[1] = target: Chikungunya virus-like particles of the 37997 strain (Chikungunya virus, strain 37997, strain); test: cryo-EM structure
[2] = target: recombinant p62-E1 protein derived from the CHIKV-LR 2006 strain (Chikungunya virus, LR 2006 …, UniProt Q1H8W5, strain); test: ELISA

| Binder | binding result [1] | binding result [2] |
| --- | --- | --- |
| B1 | binds | – |
| B2 | – | binds |
| B3 | binds | – |
| B4 | – | binds |
